Results taken from patent US20250066503A1, “CELL INJURY INDUCING THERAPEUTIC DRUG FOR USE IN CANCER THERAPY” (CHUGAI SEIYAKU KABUSHIKI KAISHA, priority 2016, published 2025).

What follows are binders tested against T1, soluble human CD3 epsilon chain (human, UniProt P07766 23-126) (assay: SPR).
T1 construct: also called CD3ε
T1 sequence (P07766 23-126 limits assumed): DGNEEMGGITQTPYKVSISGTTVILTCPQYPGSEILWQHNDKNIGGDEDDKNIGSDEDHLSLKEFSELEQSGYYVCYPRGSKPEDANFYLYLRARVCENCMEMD

Kd [nM]	Binder
36.9	TR01H016-E22Hh/none-Hi-Kn010G3/L0000-k0 (antibody, V domains shown, one-arm) VH: QVQLVESGGGLVQPGRSLRLSCAASGFTFSNAWMHWVRQAPGKGLEWVAQIKGKSNNYATYYAESVKGRFTISRADSKNSIYLQMNSLKTEDTAVYYCRYVHYSYSYGVDIWGQGTTVTVSS VL: DIVMTQSPLSLPVTPGEPASISCRSSQSLVHSNRNTYLHWYQQKPGQAPRLLIYKVSNRFSGVPDRFSGSGSGTDFTLKISRVEAEDVGVYYCGQGTQVPYTFGQGTKLEIKR
108	TR01H024-E22Hh/none-Hi-Kn010G3/L0000-k0 (antibody, V domains shown, one-arm) VH: QVQLVESGGGLVQPGGSLRLSCAASGFTFSNAWMHWVRQAPGKGLEWVAQIKGKSQNYATYYAESVKGRFTISRADSKNSIYLQMNSLKTEDTAVYYCRYVHYSASYGVDAWGQGTTVTVSS VL: DIVMTQSPLSLPVTPGEPASISCRSSQSLVHSNRNTYLHWYQQKPGQAPRLLIYKVSNRFSGVPDRFSGSGSGTDFTLKISRVEAEDVGVYYCGQGTQVPYTFGQGTKLEIKR
68.5	TR01H019-E22Hh/none-Hi-Kn010G3/L0000-k0 (antibody, V domains shown, one-arm) VH: QVQLVESGGGLVQPGRSLRLSCAASGFTFSNAWMHWVRQAPGKGLEWVAQIKGKSQNYATYYAESVKGRFTISRADSKNSIYLQMNSLKTEDTAVYYCRYVHYSASYGVDIWGQGTTVTVSS VL: DIVMTQSPLSLPVTPGEPASISCRSSQSLVHSNRNTYLHWYQQKPGQAPRLLIYKVSNRFSGVPDRFSGSGSGTDFTLKISRVEAEDVGVYYCGQGTQVPYTFGQGTKLEIKR
75.8	TR01H022-E22Hh/none-Hi-Kn010G3/L0000-k0 (antibody, V domains shown, one-arm) VH: QVQLVESGGGLVQPGGSLRLSCAASGFTFSNAWMHWVRQAPGKGLEWVAQIKGKSQNYATYYAPSVKGRFTISRADSKNSIYLQMNSLKTEDTAVYYCRYVHYSASYGVDIWGQGTTVTVSS VL: DIVMTQSPLSLPVTPGEPASISCRSSQSLVHSNRNTYLHWYQQKPGQAPRLLIYKVSNRFSGVPDRFSGSGSGTDFTLKISRVEAEDVGVYYCGQGTQVPYTFGQGTKLEIKR
69.3	TR01H018-E22Hh/none-Hi-Kn010G3/L0000-k0 (antibody, one-arm) VH: QVQLVESGGGLVQPGGSLRLSCAASGFTFSNAWMHWVRQAPGKGLEWVAQIKGKSNNYATYYAESVKGRFTISRADSKNSIYLQMNSLKTEDTAVYYCRYVHYSASYGVDIWGQGTTVTVSS light: DIVMTQSPLSLPVTPGEPASISCRSSQSLVHSNRNTYLHWYQQKPGQAPRLLIYKVSNRFSGVPDRFSGSGSGTDFTLKISRVEAEDVGVYYCGQGTQVPYTFGQGTKLEIKRTVAAPSVFIFPPSDEQLKSGTASVVCLLNNFYPREAKVQWKVDNALQSGNSQESVTEQDSKDSTYSLSSTLTLSKADYEKHKVYACEVTHQGLSSPVTKSFNRGEC
91.1	TR01H034-E22Hh/none-Hi-Kn010G3/L0000-k0 (antibody, V domains shown, one-arm) VH: QVQLVESGGGLVQPGRSLRLSCAASGFTFSNAWMHWVRQAPGKGLEWVAQIKGKSQNYATYYAESVKGRFTISRADSKNSIYLQMNSLKTEDTAVYYCRYVHYSASYGVDAWGQGTTVTVSS VL: DIVMTQSPLSLPVTPGEPASISCRSSQSLVHSNRNTYLHWYQQKPGQAPRLLIYKVSNRFSGVPDRFSGSGSGTDFTLKISRVEAEDVGVYYCGQGTQVPYTFGQGTKLEIKR
35	TR01H017-E22Hh/none-Hi-Kn010G3/L0000-k0 (antibody, V domains shown, one-arm) VH: QVQLVESGGGLVQPGGSLRLSCAASGFTFSNAWMHWVRQAPGKGLEWVAQIKAKSNNYATYYAESVKGRFTISRADSKNSIYLQMNSLKTEDTAVYYCRYVHYGAYYGVDIWGQGTTVTVSS VL: DIVMTQSPLSLPVTPGEPASISCRSSQSLVHSNRNTYLHWYQQKPGQAPRLLIYKVSNRFSGVPDRFSGSGSGTDFTLKISRVEAEDVGVYYCGQGTQVPYTFGQGTKLEIKR
51.2	TR01H026-E22Hh/none-Hi-Kn010G3/L0000-k0 (antibody, V domains shown, one-arm) VH: QVQLVESGGGLVQPGGSLRLSCAASGFTFSNAWMHWVRQAPGKGLEWVAQIKSKSQNYATYYAESVKGRFTISRADSKNSIYLQMNSLKTEDTAVYYCRYVHYSASYGVDIWGQGTTVTVSS VL: DIVMTQSPLSLPVTPGEPASISCRSSQSLVHSNRNTYLHWYQQKPGQAPRLLIYKVSNRFSGVPDRFSGSGSGTDFTLKISRVEAEDVGVYYCGQGTQVPYTFGQGTKLEIKR
80.5	TR01H021-E22Hh/none-Hi-Kn010G3/L0000-k0 (antibody, V domains shown, one-arm) VH: QVQLVESGGGLVQPGRSLRLSCAASGFTFSNAWMHWVRQAPGKGLEWVAQIKGKSNNYATYYAESVKGRFTISRADSKNSIYLQMNSLKTEDTAVYYCRYVHYSASYGVDAWGQGTTVTVSS VL: DIVMTQSPLSLPVTPGEPASISCRSSQSLVHSNRNTYLHWYQQKPGQAPRLLIYKVSNRFSGVPDRFSGSGSGTDFTLKISRVEAEDVGVYYCGQGTQVPYTFGQGTKLEIKR
79.4	TR01H023-E22Hh/none-Hi-Kn010G3/L0000-k0 (antibody, V domains shown, one-arm) VH: QVQLVESGGGLVQPGGSLRLSCAASGFTFSNAWMHWVRQAPGKGLEWVAQIKGKSQNYATYYAESVKGRFTISRADSKNSIYLQMNSLKTEDTAVYYCRYVHYSASYGVDIWGQGTTVTVSS VL: DIVMTQSPLSLPVTPGEPASISCRSSQSLVHSNRNTYLHWYQQKPGQAPRLLIYKVSNRFSGVPDRFSGSGSGTDFTLKISRVEAEDVGVYYCGQGTQVPYTFGQGTKLEIKR
64.8	TR01H020-E22Hh/none-Hi-Kn010G3/L0000-k0 (antibody, V domains shown, one-arm) VH: QVQLVESGGGLVQPGRSLRLSCAASGFTFSNAWMHWVRQAPGKGLEWVAQIKGKSNNYATYYAPSVKGRFTISRADSKNSIYLQMNSLKTEDTAVYYCRYVHYSASYGVDIWGQGTTVTVSS VL: DIVMTQSPLSLPVTPGEPASISCRSSQSLVHSNRNTYLHWYQQKPGQAPRLLIYKVSNRFSGVPDRFSGSGSGTDFTLKISRVEAEDVGVYYCGQGTQVPYTFGQGTKLEIKR
48.8	TR01H033-E22Hh/none-Hi-Kn010G3/L0000-k0 (antibody, V domains shown, one-arm) VH: QVQLVESGGGLVQPGRSLRLSCAASGFTFSNAWMHWVRQAPGKGLEWVAQIKSKSQNYATYYAESVKGRFTISRADSKNSIYLQMNSLKTEDTAVYYCRYVHYSASYGVDYWGQGTTVTVSS VL: DIVMTQSPLSLPVTPGEPASISCRSSQSLVHSNRNTYLHWYQQKPGQAPRLLIYKVSNRFSGVPDRFSGSGSGTDFTLKISRVEAEDVGVYYCGQGTQVPYTFGQGTKLEIKR
67	TR01H029-E22Hh/none-Hi-Kn010G3/L0000-k0 (antibody, V domains shown, one-arm) VH: QVQLVESGGGLVQPGRSLRLSCSASGFTFSNAWMHWVRQAPGKGLEWVAQIKGKSNNYATYYAESVKGRFTISRADSKNSIYLQMNSLKTEDTAVYYCRYVHYSASYGVDIWGQGTTVTVSS VL: DIVMTQSPLSLPVTPGEPASISCRSSQSLVHSNRNTYLHWYQQKPGQAPRLLIYKVSNRFSGVPDRFSGSGSGTDFTLKISRVEAEDVGVYYCGQGTQVPYTFGQGTKLEIKR
38.6	TR01H025-E22Hh/none-Hi-Kn010G3/L0000-k0 (antibody, V domains shown, one-arm) VH: QVQLVESGGGLVQPGRSLRLSCAASGFTFSNAWMHWVRQAPGKGLEWVAQIKSKSQNYATYYAESVKGRFTISRADSKNSIYLQMNSLKTEDTAVYYCRYVHYSASYGVDIWGQGTTVTVSS VL: DIVMTQSPLSLPVTPGEPASISCRSSQSLVHSNRNTYLHWYQQKPGQAPRLLIYKVSNRFSGVPDRFSGSGSGTDFTLKISRVEAEDVGVYYCGQGTQVPYTFGQGTKLEIKR
84.9	TR01H035-E22Hh/none-Hi-Kn010G3/L0000-k0 (antibody, V domains shown, one-arm) VH: QVQLVESGGGLVQPGRSLRLSCAASGFTFSNAWMHWVRQAPGKGLEWVAQIKGKSQNYATYYAESVKGRFTISRADSKNSIYLQMNSLKTEDTAVYYCRYVHYSASYGVDYWGQGTTVTVSS VL: DIVMTQSPLSLPVTPGEPASISCRSSQSLVHSNRNTYLHWYQQKPGQAPRLLIYKVSNRFSGVPDRFSGSGSGTDFTLKISRVEAEDVGVYYCGQGTQVPYTFGQGTKLEIKR
65.4	TR01H030-E22Hh/none-Hi-Kn010G3/L0000-k0 (antibody, one-arm) VH: QVQLVESGGGVVQPGRSLRLSCAASGFTFSNAWMHWVRQAPGKGLEWVAQIKGKSNNYATYYAESVKGRFTISRADSKNSIYLQMNSLKTEDTAVYYCRYVHYSASYGVDIWGQGTTVTVSS light: DIVMTQSPLSLPVTPGEPASISCRSSQSLVHSNRNTYLHWYQQKPGQAPRLLIYKVSNRFSGVPDRFSGSGSGTDFTLKISRVEAEDVGVYYCGQGTQVPYTFGQGTKLEIKRTVAAPSVFIFPPSDEQLKSGTASVVCLLNNFYPREAKVQWKVDNALQSGNSQESVTEQDSKDSTYSLSSTLTLSKADYEKHKVYACEVTHQGLSSPVTKSFNRGEC
69.5	TR01H027-E22Hh/none-Hi-Kn010G3/L0000-k0 (antibody, V domains shown, one-arm) VH: QVQLVESGGGLVQPGGSLRLSCAASGFTFSNAWMHWVRQAPGKGLEWVAQIKSKSQNYATYYAESVKGRFTISRADSKNSIYLQMNSLKTEDTAVYYCRYVHYSASYGVDAWGQGTTVTVSS VL: DIVMTQSPLSLPVTPGEPASISCRSSQSLVHSNRNTYLHWYQQKPGQAPRLLIYKVSNRFSGVPDRFSGSGSGTDFTLKISRVEAEDVGVYYCGQGTQVPYTFGQGTKLEIKR
57.3	TR01H032-E22Hh/none-Hi-Kn010G3/L0000-k0 (antibody, V domains shown, one-arm) VH: QVQLVESGGGLVQPGRSLRLSCAASGFTFSNAWMHWVRQAPGKGLEWVAQIKSKSQNYATYYAESVKGRFTISRADSKNSIYLQMNSLKTEDTAVYYCRYVHYSASYGVDAWGQGTTVTVSS VL: DIVMTQSPLSLPVTPGEPASISCRSSQSLVHSNRNTYLHWYQQKPGQAPRLLIYKVSNRFSGVPDRFSGSGSGTDFTLKISRVEAEDVGVYYCGQGTQVPYTFGQGTKLEIKR
65	TR01H036-E22Hh/none-Hi-Kn010G3/L0000-k0 (antibody, V domains shown, one-arm) VH: QVQLVESGGGLVQPGRSLRLSCAASGFTFSNAWMHWVRQAPGKGLEWVAQIKGKSNNYATYYAESVKGRFTISRADSKNSIYLQMNSLKTEDTAVYYCRYVHYSASYGVDYWGQGTTVTVSS VL: DIVMTQSPLSLPVTPGEPASISCRSSQSLVHSNRNTYLHWYQQKPGQAPRLLIYKVSNRFSGVPDRFSGSGSGTDFTLKISRVEAEDVGVYYCGQGTQVPYTFGQGTKLEIKR
75.5	TR01H031-E22Hh/none-Hi-Kn010G3/L0000-k0 (antibody, one-arm) VH: QVQLVESGGGVVQPGGSLRLSCAASGFTFSNAWMHWVRQAPGKGLEWVAQIKGKSNNYATYYAESVKGRFTISRADSKNSIYLQMNSLKTEDTAVYYCRYVHYSASYGVDIWGQGTTVTVSS light: DIVMTQSPLSLPVTPGEPASISCRSSQSLVHSNRNTYLHWYQQKPGQAPRLLIYKVSNRFSGVPDRFSGSGSGTDFTLKISRVEAEDVGVYYCGQGTQVPYTFGQGTKLEIKRTVAAPSVFIFPPSDEQLKSGTASVVCLLNNFYPREAKVQWKVDNALQSGNSQESVTEQDSKDSTYSLSSTLTLSKADYEKHKVYACEVTHQGLSSPVTKSFNRGEC
48	TR01H028-E22Hh/none-Hi-Kn010G3/L0000-k0 (antibody, V domains shown, one-arm) VH: QVQLVESGGGVVQPGGSLRLSCAASGFTFSNAWMHWVRQAPGKGLEWVAQIKSKSQNYATYYAESVKGRFTISRADSKNSIYLQMNSLKTEDTAVYYCRYVHYSASYGVDIWGQGTTVTVSS VL: DIVMTQSPLSLPVTPGEPASISCRSSQSLVHSNRNTYLHWYQQKPGQAPRLLIYKVSNRFSGVPDRFSGSGSGTDFTLKISRVEAEDVGVYYCGQGTQVPYTFGQGTKLEIKR
